In test [1] the target is T1, protein kinase Cα (UniProt P17252 1-672, limits assumed).
T1 construct: also called PKCα; PKC α
Description: PKCα 33P kinase assay, Ki obtained by varying the concentration of peptide substrate Ac-Ser-Phe-Arg-Arg-Arg-NH2. As for the experimental part: Subsequent assay workup and scintillation counting were performed as described under "Protein Kinase C α, β and γ Assay (library screening)".
The reaction was initiated as described above. […] Following an additional 5 min incubation at ambient temperature, 75 µL from each reaction well was transferred into each well of a Unifilter (P81 cellulose phosphate paper) assay plate and washed four times with 0.1% phosphoric acid in water. […] IC$50$ values were calculated using GraFit (Erithacus Software Limited) and K_i values were calculated using Enzyme Kinetics, SigmaPlot (SPSS Inc.)

In test [2] the target is T1, protein kinase Cα. Briefly: cell-based or functional assay.
Test [3] addresses T2, protein kinase C ζ (UniProt Q05513 1-592, limits assumed).
T2 sequence (looked up): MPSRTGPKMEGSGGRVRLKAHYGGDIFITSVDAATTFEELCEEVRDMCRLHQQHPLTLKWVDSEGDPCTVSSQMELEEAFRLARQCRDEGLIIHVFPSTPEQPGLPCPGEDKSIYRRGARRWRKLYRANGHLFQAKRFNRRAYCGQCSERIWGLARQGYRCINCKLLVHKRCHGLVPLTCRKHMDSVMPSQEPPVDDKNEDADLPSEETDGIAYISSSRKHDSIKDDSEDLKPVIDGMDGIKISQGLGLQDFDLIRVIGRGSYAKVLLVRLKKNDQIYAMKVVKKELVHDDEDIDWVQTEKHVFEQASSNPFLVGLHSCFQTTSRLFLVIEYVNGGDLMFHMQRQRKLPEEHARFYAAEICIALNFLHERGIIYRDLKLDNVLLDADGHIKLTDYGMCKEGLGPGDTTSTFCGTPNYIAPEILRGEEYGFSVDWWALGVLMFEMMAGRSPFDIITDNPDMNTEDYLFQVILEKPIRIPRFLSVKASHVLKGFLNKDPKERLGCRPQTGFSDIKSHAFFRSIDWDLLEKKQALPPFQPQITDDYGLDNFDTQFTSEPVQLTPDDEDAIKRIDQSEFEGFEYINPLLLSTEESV
Briefly: cell-based or functional assay.

Test [4] has as its target T3, protein kinase C γ (UniProt P05129 1-697, limits assumed). Briefly: cell-based or functional assay.
The target in test [5] is T4, protein kinase C η (UniProt P24723 1-683, limits assumed). Description: cell-based or functional assay.
Test [6] deals with T5, protein kinase C ε (UniProt Q02156 1-737, limits assumed).
T5 sequence (looked up): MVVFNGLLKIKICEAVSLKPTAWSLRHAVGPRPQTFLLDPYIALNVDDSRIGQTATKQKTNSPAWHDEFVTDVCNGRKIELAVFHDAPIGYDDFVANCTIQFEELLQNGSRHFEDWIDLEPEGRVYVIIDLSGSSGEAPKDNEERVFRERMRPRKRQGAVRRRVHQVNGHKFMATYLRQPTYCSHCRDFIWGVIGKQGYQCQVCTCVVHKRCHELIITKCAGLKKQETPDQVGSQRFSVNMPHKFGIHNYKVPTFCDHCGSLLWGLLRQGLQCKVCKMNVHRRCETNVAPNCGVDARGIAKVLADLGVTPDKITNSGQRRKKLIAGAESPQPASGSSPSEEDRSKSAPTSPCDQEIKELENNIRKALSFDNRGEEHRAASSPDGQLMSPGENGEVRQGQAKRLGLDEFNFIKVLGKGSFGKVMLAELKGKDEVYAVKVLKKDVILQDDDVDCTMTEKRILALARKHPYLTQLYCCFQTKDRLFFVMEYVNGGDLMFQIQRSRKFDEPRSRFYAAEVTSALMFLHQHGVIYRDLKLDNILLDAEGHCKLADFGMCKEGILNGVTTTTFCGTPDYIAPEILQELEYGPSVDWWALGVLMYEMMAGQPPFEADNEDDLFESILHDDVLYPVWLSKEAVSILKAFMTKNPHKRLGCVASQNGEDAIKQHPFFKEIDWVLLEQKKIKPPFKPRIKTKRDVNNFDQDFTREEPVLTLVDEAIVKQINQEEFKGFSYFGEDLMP
Description: cell-based or functional assay.

Test [7] concerns the target T6, protein kinase C βI (UniProt P05771-1 1-671, limits assumed). Description: cell-based or functional assay.
The target in test [8] is T7, protein kinase C θ (UniProt Q04759 1-706, limits assumed). Briefly: cell-based or functional assay.
Test [9] has as its target T1, protein kinase Cα. Briefly: cell-based or functional assay. The source holds these as a separate data set.
The target of test [10] is T8, protein kinase C τ (atypical; ι in the tables) (UniProt P41743 1-596).
T8 sequence (looked up): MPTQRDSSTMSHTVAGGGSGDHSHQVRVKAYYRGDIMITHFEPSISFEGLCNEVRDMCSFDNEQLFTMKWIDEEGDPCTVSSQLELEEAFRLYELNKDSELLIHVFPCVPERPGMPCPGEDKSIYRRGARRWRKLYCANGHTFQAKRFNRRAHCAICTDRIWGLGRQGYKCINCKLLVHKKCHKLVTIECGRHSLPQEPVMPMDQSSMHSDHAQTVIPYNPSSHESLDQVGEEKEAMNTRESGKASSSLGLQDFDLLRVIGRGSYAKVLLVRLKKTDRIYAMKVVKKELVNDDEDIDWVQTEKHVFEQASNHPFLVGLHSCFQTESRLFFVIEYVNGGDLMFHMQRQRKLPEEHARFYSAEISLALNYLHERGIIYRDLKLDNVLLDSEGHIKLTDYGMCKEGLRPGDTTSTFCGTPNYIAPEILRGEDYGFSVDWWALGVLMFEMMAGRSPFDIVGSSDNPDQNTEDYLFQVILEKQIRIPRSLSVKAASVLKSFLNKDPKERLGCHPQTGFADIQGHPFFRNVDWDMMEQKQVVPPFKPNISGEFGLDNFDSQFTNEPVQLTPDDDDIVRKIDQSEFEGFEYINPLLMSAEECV
Description: cell-based or functional assay.

In test [11] the target is T3, protein kinase C γ. Description: cell-based or functional assay. The source holds these as a separate data set.
Test [12] concerns the target T4, protein kinase C η. Briefly: cell-based or functional assay. The source holds these as a separate data set.
The target of test [13] is T5, protein kinase C ε. Description: cell-based or functional assay. This is another data set of the same source.
Test [14] deals with T6, protein kinase C βI. Briefly: cell-based or functional assay. The source holds these as a separate data set.
Test [15] concerns the target T7, protein kinase C θ. Description: cell-based or functional assay. The source holds these as a separate data set.
Test [16] has as its target T1, protein kinase Cα. Briefly: cell-based or functional assay. This is another data set of the same source.
For test [17], the target named is T2, protein kinase C ζ. Briefly: cell-based or functional assay. This is another data set of the same source.
In test [18] the target is T3, protein kinase C γ. Briefly: cell-based or functional assay. The source holds these as a separate data set.
For test [19], the target named is T4, protein kinase C η. Briefly: cell-based or functional assay. The source holds these as a separate data set.
Test [20] concerns the target T5, protein kinase C ε. Description: cell-based or functional assay. This is another data set of the same source.
For test [21], the target named is T6, protein kinase C βI. Briefly: cell-based or functional assay. The source holds these as a separate data set.
The target of test [22] is T7, protein kinase C θ. Briefly: cell-based or functional assay. This is another data set of the same source.
The target of test [23] is T1, protein kinase Cα. Description: cell-based or functional assay. This is another data set of the same source.
The target in test [24] is T2, protein kinase C ζ. Description: cell-based or functional assay. This is another data set of the same source.
In test [25] the target is T8, protein kinase C τ (atypical; printed ι …). Description: cell-based or functional assay. The source holds these as a separate data set.
For test [26] the target is unchanged. Briefly: cell-based or functional assay. The source holds these as a separate data set.

Consider 8 molecules from patent US7902330 (ALBERT EINSTEIN COLLEGE OF MEDICINE OF YESHIVA UNIVERSITY, dated 2011).

Starred links: 1 amine or outer side, 2 acyl side, 3 side chain; linkers in the order of their positions; H or OH if unused. Non-standard residues stand in square brackets, D forms with d. No end group written: not given here. *: point of attachment. 4‑nitrohippuryl = O=C(NCC(=O)*)c1ccc([N+](=O)[O-])cc1; Benzoyl(4-(pyrrol-1-yl)) = O=C(c1ccc(-n2cccc2)cc1)*; 10‑hydroxydecanoyl = O=C(CCCCCCCCCO)*; 2,3‑dihydroxybenzyl = Oc1cccc(C*)c1O; Cysteamide = C(CS[*:3])N[*:1]; Dap = NC[C@H](N)C(=O)O

As a reminder, the Ki is a measure of affinity in units of concentration, obtained from inhibition or displacement. Low values mean higher affinity, high ones lower affinity.

T4 sequence (P24723 whole entry): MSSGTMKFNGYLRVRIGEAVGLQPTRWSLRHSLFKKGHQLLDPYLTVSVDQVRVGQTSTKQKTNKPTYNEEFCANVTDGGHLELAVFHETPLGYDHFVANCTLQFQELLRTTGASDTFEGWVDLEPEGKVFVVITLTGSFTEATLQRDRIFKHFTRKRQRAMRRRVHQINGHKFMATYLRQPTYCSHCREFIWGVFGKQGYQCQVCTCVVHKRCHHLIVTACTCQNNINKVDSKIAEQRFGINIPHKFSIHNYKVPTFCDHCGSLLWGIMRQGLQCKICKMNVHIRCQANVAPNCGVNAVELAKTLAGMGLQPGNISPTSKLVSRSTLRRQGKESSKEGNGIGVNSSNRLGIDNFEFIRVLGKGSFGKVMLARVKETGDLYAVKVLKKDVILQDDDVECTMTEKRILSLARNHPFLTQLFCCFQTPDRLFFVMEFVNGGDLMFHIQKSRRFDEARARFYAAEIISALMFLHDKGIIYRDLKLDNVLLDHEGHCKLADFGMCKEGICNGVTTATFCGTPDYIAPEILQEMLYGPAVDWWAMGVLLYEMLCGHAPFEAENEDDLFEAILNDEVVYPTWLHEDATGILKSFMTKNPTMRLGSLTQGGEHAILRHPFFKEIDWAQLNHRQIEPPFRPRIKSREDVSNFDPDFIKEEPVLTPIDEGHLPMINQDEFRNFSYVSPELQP
T7 sequence (Q04759 whole entry): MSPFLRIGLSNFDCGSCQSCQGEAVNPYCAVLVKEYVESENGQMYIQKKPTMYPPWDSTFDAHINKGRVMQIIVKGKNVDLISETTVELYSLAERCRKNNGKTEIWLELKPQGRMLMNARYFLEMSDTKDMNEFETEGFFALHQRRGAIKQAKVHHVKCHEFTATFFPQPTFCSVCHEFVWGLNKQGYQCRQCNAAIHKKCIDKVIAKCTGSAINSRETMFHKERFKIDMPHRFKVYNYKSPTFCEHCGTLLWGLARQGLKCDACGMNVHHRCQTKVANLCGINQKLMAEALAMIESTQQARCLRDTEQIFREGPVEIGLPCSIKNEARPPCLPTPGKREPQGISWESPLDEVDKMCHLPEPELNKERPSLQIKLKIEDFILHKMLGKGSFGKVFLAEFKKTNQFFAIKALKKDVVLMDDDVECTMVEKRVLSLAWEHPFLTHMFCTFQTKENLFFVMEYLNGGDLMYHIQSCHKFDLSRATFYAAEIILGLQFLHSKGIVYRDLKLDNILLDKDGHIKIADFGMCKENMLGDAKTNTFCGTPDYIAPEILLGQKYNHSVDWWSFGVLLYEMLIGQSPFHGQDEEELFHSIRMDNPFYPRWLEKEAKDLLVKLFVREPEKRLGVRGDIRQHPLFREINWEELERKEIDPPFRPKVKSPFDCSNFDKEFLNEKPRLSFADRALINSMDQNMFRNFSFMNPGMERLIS
T6 sequence (P05771 whole entry): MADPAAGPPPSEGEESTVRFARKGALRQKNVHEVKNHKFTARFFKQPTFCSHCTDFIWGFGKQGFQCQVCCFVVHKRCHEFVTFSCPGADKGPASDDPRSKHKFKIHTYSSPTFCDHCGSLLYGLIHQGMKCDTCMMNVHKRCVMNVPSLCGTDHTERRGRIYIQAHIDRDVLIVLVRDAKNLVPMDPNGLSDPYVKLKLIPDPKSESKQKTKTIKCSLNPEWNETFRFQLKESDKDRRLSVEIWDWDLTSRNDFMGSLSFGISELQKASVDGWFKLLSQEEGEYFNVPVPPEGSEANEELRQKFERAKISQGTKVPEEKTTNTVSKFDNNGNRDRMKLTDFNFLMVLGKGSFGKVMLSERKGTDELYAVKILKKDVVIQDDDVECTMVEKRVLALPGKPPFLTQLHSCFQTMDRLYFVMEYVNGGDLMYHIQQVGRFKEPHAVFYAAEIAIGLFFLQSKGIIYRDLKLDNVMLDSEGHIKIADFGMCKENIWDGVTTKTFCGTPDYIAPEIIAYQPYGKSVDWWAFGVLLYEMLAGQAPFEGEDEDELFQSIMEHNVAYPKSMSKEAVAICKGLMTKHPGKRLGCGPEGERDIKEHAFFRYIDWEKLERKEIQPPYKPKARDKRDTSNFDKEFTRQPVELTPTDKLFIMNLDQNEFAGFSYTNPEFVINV

B1: compound 4 (diacetylated control peptide) (peptide)
peptide: Ac-ARRGALR[Dap](Ac)A-NH2
notes: also called peptide 4; starting parent peptide 4
As for B1, affinity in the test with protein kinase Cα [1] was put at a Ki of 350 µM. In addition, the “IC50, PKCα-catalysed phosphorylation of peptide substrate (33P assay)” value (from here on “IC50, PKCα-catalysed phosphorylation”) with protein kinase Cα [2] was 1100 µM.

B2: Compound C (peptide)
peptide: Ac-RRQG[Dap](4‑nitrohippuryl)FMYF-Cysteamide
SMILES: CSCC[C@H](NC(=O)[C@H](Cc1ccccc1)NC(=O)[C@H](CNC(=O)CNC(=O)c1ccc([N+](=O)[O-])cc1)NC(=O)CNC(=O)[C@H](CCC(N)=O)NC(=O)[C@H](CCCNC(=N)N)NC(=O)[C@H](CCCNC(=N)N)NC(C)=O)C(=O)N[C@@H](Cc1ccc(O)cc1)C(=O)N[C@@H](Cc1ccccc1)C(=O)NCCS
With B2, the “IC50, PKC ζ kinase assay” value in the test with protein kinase C ζ [3] came to 6.4 µM.
ARRGALR[Dap](Benzoyl(4-(pyrrol-1-yl)))A-Cysteamide (also: further groups not given here, also called peptide 6; Compound H) [compound 6 (primary lead from library IV)] yielded a Ki with protein kinase Cα [1] of 0.0008 µM. Moreover, the “selectivity for PKCα versus this isoform” value in the test with protein kinase C γ [4] is 580 fold; in the test with protein kinase C η [5], 1310 fold; in the test with protein kinase C ε [6], 600 fold; with protein kinase C βI [7] it was 385 fold; in the test with protein kinase C θ [8], 1210 fold; with protein kinase C ζ [3], 640 fold. The “selectivity for PKCα versus this isoform” value in test [10] is 940 fold. The “IC50 as an inhibitor of histone III-S phosphorylation by PKCα” value in the test with protein kinase Cα [9] is 0.0317 µM. Besides, in the test with protein kinase Cα [2], the “IC50, PKCα-catalysed phosphorylation” value turned out to be 0.0019 µM.
Take {2,3‑dihydroxybenzyl}-RRQG[Dap](4‑nitrohippuryl)FMYF-Cysteamide [Compound F]: the “IC50, PKC kinase assay (33P, peptide substrate)” value (shortened to “IC50 … (33P, peptide substrate)”) was 9 µM in the test with protein kinase C γ [11]; 12.3 µM with protein kinase C η [12]; 8.8 µM in the test with protein kinase C ε [13]; 3.1 µM in the test with protein kinase C βI [14]; 13.7 µM with protein kinase C θ [15]; 17 µM in the test with protein kinase Cα [16]. Besides, in the test with protein kinase C ζ [17], the “IC50 … (33P, peptide substrate)” value stood at 3.6 µM. Moreover, the “Fold selectivity (IC50), PKC δ = 1” value in the test with protein kinase C γ [18] was 500 fold; with protein kinase C η [19], 683 fold; with protein kinase C ε [20] it was 489 fold; with protein kinase C βI [21], 172 fold; with protein kinase C θ [22] it was 761 fold; with protein kinase Cα [23], 944 fold. Besides, the entries for the “Fold selectivity (IC50), PKC δ = 1” value (with protein kinase C ζ [24]; in [25]) were 200 fold and 26 fold, respectively.
In the test with protein kinase Cα [1], Ac-ARRGALR[Dap](Benzoyl(4-(pyrrol-1-yl)))A-Cysteamide (also called peptide 3) [compound 3 (lead from library III)] showed a Ki of 0.55 µM. In the test with protein kinase Cα [2], the “IC50, PKCα-catalysed phosphorylation” value amounted to 4.7 µM.
Ac-RRQG[Dap](Ac)FMYF-Cysteamide [Compound A (diacetylated consensus derivative)]: the “IC50, PKC kinase assay” value with protein kinase C ζ [3] is 80 µM.
As to Ac-RRQG[Dap](10‑hydroxydecanoyl)FMYF-Cysteamide [Compound B], in the test with protein kinase C ζ [3], the “IC50, PKC ζ kinase assay” value was 0.85 µM and the “IC50 relative to the diacetylated parent peptide A” value is approximately 100 fold.
Turning to H-RRQG[Dap]FMYF-Cysteamide (not fully specified (residue 5)) [Compound E (nonacylated free amine)], the “IC50 … (33P, peptide substrate)” value in the test with protein kinase C γ [11] was 4.4 µM; with protein kinase C η [12], 13.2 µM; with protein kinase C ε [13] it was 2.3 µM; with protein kinase C βI [14], 0.008 µM; with protein kinase C θ [15], 14.2 µM; in the test with protein kinase Cα [16] it was 3.1 µM. In the test with protein kinase C ζ [17], the “IC50 … (33P, peptide substrate)” value was found to be 0.022 µM. The “Selectivity (IC50 relative to PKC βI = 1)” value with protein kinase C γ [11] came out at 550 fold; in the test with protein kinase C η [12], 1650 fold; with protein kinase C ε [13] it was 287 fold; in the test with protein kinase C βI [14], 1 fold; with protein kinase C θ [15], 1780 fold; with protein kinase Cα [16] it was 387 fold. Also, the “Selectivity (IC50 relative to PKC βI = 1)” value in the test with protein kinase C ζ [17] was determined as 2.8 fold; in test [26], 94 fold.
